According to patent publication US20170158753A1:
Where “and” joins values, the source holds several entries; their conditions need not be identical. Equal values may be shown once. Read-outs that look alike come from different tables or passages of the source.

Legend:
[1] = molecular target: cleaved EBOV GP (GPcl) (Ebola virus (EBOV)), Q05320; test: ELISA on thermolysin cleaved EBOV GP (GPcl), OD650 against nM mAb; details: remark: other sources report otherwise
[2] = molecular target: EBOV GP[change] (Ebola virus), Q05320; details: remark: other sources report otherwise
[3] = molecular target: EBOV GP[change] (Ebola virus), Q05320; details: remark: other sources report otherwise; remark: listed apart in the source
[4] = molecular target: RESTV GP[change] (Reston virus) (UniProt Q66799)
[5] = molecular target: EBOV GP[change] (Ebola virus) (UniProt Q05320)
[6] = molecular target: BDBV GP[change] (Bundibugyo virus (BDBV)); test: ELISA, GPΔTM coated
[7] = molecular target: cleaved EBOV GP (GPcl) (Ebola virus (EBOV)), Q05320; test: ELISA, cleaved EBOV GP coated; details: remark: other sources report otherwise
[8] = molecular target: cleaved EBOV GP (GPcl) (Ebola virus (EBOV)), Q05320; test: ELISA on cathepsin-cleaved EBOV GP at pH 7; details: remark: other sources report otherwise
[9] = molecular target: MARV GP[change] (Marburg virus), P35253; details: remark: other sources report otherwise
[10] = molecular target: cleaved EBOV GP (GPcl) (Ebola virus (EBOV)), Q05320; test: ELISA on cathepsin-cleaved EBOV GP at pH 5.5; details: remark: other sources report otherwise
[11] = molecular target: MARV GP[change] (Marburg virus) (UniProt P35253)
[12] = molecular target: SUDV GP[change] (Sudan virus) (UniProt Q66814)
[13] = molecular target: EBOV GP[change] (Ebola virus) (UniProt Q05320); remark: listed apart in the source
[14] = molecular target: EBOV GP[change] (Ebola virus), Q05320; details: remark: other sources report otherwise; remark: listed apart in the source

Row | Binder | EC50 [1] | EC50 [2] | EC50 [3] | EC50 [5] | EC50 [6] | EC50 [9] | EC50 [12] | also measured
1 | m16G8 (antibody, V domains shown) VH: EVQLQESGPGLVKPGASVKISCKASGYSFTGYYMNWVKQSPEKSLEWIGEINPSTGGTTYNQKFKAKATLTVDKSSSTAYMQLKSLTSEDSAVYYCVRYSHYYGSGSWYFDVWGTGTTVTVSS VL: DIQMTQSPASLSASVGETVTITCRASENIYSNLAWYQQKQGKSPQLLVNAATNLADGVPSRFSGSGSGTQFSLKINSLQPEDFGSYYCQHFYVTPYMFGSGTKLEIKR | > 100 nM | 1.23 µg/mL | 3.3 nM |  |  |  |  | 
2 | m2E4 (antibody, V domains shown) VH: EVQLQESGPELVKPGASVKISCKASGYSFTGYYMNWVKQSPEKSLEWIGEINPSTGGTTYNQKFKAKATLTVDKSSSTAYMQLKSLTSEDSAVYYCVRYSHYYGSGSWYFDVWGTGTTVTVSS VL: DIQMTQSPASLSASVGETVTITCRASENIYSNLAWYQQKQGKSPQLLVNAATNLADGVPSRFSGSGSGTQFSLKINSLQPEDFGSYYCQHFYVTPYTFGSGTKLEIKR |  |  |  | > 10 µg/mL | 0.69 µg/mL |  |  | EC50 [4]: > 10 µg/mL
3 | m2D8 (antibody, V domains shown) VH: EVQLQESGGELVRPGTSVKISCKASGYTFTNFWLGWIKERPGHGLEWIGDIYPGGHYTNYNENFKGKATLTADTSSNTAYMQVSSLTSEDSAVYFCFTQYYDMDYWGQGTSVTVSS VL: not shown |  | 26.2 µg/mL |  |  |  | 0.0573 µg/mL |  | EC50 [7]: 0.72 µg/mL; EC50 (read off the curve) [8]: 0.7 µg/mL; EC50 (read off the curve) [10]: 1 µg/mL
4 | m21B2 (antibody, V domains shown) VH: EVQLQESGAELVRPGASVTLSCKTSGYTFTDYEMHWVKQTPVHGLEWIGAIDPETGGTAYNQKFKGKATLTADKSSSTAYMELSRLTSEDSAVYYCTGNYATDYWGQGTSVTVSS VL: DIVMSQSPSSLAVSAGEKVTMSCKSSQSLFNSRSRKNYLAWYQLKPGQSPKLLIYWASTRESGVPDRFTGSGSGTDFTLTISSVQAEDLAVYYCKQSNYLWTFGGGTKLEIKR |  | > 10 µg/mL |  |  |  | 0.0307 µg/mL | > 10 µg/mL | EC50 [11]: 0.0688 µg/mL
5 | m8C4 (antibody, V domains shown) VH: EVQLQESGPELKKPGETVKISCKASGYTFTTYGMSWVKQAPGKGLKWMGRINTYSGVPTYADEFKGRFAFSLENSASTAYLQINNLKNEDTATYFCARGDGGHWFANWGQGTLVTVSA VL: DIQMTQSPSSLSASLGGKVTITCKASQDINKNIAWYQHKPGKGPRLLIWYKSALQPGIPSRFSGSGSGRDYSFSISNLEPEDIATYSCLQYDNLPPTFGGGTKLEIKR |  | 0.21 µg/mL | 2.6 nM | 0.26 µg/mL | > 10 µg/mL |  | 0.15 µg/mL and 0.06 µg/mL | EC50 [13]: 6.7 nM
6 | m17C6 (antibody, V domains shown) VH: EVQLQESGPGLVQPSQSLSITCTVSGFSLTSYGVHWVRQSPGKGLEWLGVIWSGGSTDYNAAFISRLSISKDNSKSQVFFKMNSLQADDTAIYYCARNWFDYDNYYSMDYWGQGTSVTVSS VL: DIQMTQTTSSLSASLGDRVTISCRASQDISNYLNWYQQKPDGTVKLLIYYTSRLHSGVPSRFSGSGSGTDFSLTISNQEPEDIATYYCQQYSNLPWTFGGGTKLEIKR | 0.6 nM | 0.03 µg/mL | 1 nM |  |  |  |  | Kd [14]: 11 nM
